Experimental data as given in article PMC11893775.
Non-standard residues stand in square brackets, D forms with d. No end group written: not given here.

Tests used:
[1] = target: recombinant human furin lacking the trans-membrane domain and cytosolic tail (human) (UniProt P09958)
[2] = target: T1, recombinant kallikrein-8 (rKLK8) (UniProt O60259)
T1 sequence: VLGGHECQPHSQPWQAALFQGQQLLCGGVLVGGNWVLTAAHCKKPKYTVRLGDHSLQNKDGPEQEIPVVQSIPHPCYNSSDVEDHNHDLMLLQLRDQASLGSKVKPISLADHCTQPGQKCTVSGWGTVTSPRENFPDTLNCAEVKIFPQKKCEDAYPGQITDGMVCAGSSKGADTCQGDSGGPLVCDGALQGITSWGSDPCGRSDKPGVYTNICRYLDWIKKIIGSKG

UniProt P09958, sequence (P09958 108-715): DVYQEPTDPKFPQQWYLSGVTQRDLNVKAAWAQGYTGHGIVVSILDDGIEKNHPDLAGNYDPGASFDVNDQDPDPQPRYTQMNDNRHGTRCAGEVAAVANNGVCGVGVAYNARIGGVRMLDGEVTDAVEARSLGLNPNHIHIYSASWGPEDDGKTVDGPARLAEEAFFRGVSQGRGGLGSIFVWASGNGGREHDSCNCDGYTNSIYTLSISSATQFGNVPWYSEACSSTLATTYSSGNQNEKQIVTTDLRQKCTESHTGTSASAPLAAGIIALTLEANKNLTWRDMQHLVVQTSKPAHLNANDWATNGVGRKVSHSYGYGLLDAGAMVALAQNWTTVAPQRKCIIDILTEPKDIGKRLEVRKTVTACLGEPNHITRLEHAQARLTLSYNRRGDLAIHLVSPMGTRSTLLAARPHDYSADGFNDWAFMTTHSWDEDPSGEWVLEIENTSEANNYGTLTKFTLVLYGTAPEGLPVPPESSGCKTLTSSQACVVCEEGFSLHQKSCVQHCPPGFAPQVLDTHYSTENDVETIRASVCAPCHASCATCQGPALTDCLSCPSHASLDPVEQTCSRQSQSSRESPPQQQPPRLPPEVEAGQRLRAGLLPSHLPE

IC50 of D6R for inhibition of the in vitro cleavage of the fluorogenic substrate Boc-RVRR-AMC by rFurin [1]: 780 nM
IC50 of D6R for inhibition of the in vitro cleavage of the fluorogenic substrate Boc-VPR-AMC by rKLK8 [2]: < 25000 nM
Binder: [dR][dR][dR][dR][dR][dR] [hexa-D-arginine]
